Reference: patent US20220356255A1 (CENTESSA PHARMACEUTICALS UK, published 2022)

How the values were obtained:
human PD-L1 on cells [1] = target: T1, human PD-L1 on cells (human, UniProt Q9NZQ7 19-290); experiment: flow cytometry on MDA-MB-231 cells, Krebs buffer; ratio of EC50 values
T1 construct: Endogenous on MDA-MB-231 cells or transfected into HEK293FF cells (Sino Biological plasmid); the assay field says which; also called native PD-L1 on MDA-MB-231 cells; PD-L1 expressing MDA-MB-231 cells
T1 sequence (Q9NZQ7 19-290 limits assumed): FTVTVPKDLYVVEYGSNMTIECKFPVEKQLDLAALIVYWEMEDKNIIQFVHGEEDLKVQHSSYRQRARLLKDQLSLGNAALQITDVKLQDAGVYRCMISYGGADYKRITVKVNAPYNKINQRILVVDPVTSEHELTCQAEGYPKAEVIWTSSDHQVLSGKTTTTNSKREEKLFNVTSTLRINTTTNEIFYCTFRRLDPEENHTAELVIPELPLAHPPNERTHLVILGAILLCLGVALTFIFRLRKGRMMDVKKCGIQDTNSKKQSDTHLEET
Protocol: (§1) Anti-PD-L1 affinity matured Fabs were tested for their ability to bind to native PD-L1 in a cell line, (MDA-MB-231 cells) in a buffer resembling the tumor microenvironment (Krebs-lactate).

biotinylated human PD-L1 [2] = target: T2, biotinylated human PD-L1 (human, UniProt Q9NZQ7 19-239, limits assumed, biotinylated (sites not given)); experiment: competition ELISA, Fab with biotinylated PD-L1 on coated PD-1-Fc, pH 6
T2 construct: Bought from R&D Systems; also called biotinylated-PD-L1; human PD-L1 biotin
T2 sequence (Q9NZQ7 19-239 limits assumed): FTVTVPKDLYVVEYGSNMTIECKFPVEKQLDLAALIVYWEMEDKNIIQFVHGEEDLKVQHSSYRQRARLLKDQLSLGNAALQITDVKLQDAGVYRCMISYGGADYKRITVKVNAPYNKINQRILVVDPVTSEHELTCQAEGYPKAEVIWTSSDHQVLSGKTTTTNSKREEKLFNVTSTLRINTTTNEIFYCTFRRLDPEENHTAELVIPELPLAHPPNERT

human PD-L1 on cells [3] = target: T1, human PD-L1 on cells; experiment: flow cytometry on MDA-MB-231 cells, Krebs-lactate buffer, pH 6 versus pH 7.4
Protocol: In order to mimic an acidic tumor environment milieu with tumor cells expressing PD-L1 (The metabolism of tumors in the body, Warburg et al. J Gen Physiol. 1927; 8:519-30) the following buffers were utilised: Krebs ringer bicarbonate buffer (KRB, Amsbio catalog number KRB-1000) with 1 mM lactic acid (Sigma catalog number 252476-50DG) for pH 7.4; KRB plus 15 mM lactic acid for pH 6.5 and KRB plus 20 mM lactic acid for pH 6.0). 3 fold dilutions (100 nM to 0.0005 nM; 0) of the Fabs or IgG were prepared in the respective pH buffers and incubated with 0.60E05 MDA-MB-231 cells for 60 minutes at 4° C. The cells were then washed 3× with the respective pH buffers, at 300 g for 3 min. The cells were then incubated with 50 μl of anti-human IgG (Fab specific)-FITC (Sigma, catalog number F5512-1ML) at 1:100 dilution in the respective pH buffers. Binding of the IgG or Fab to PD-L1 expressing cells was measured by FACS (Attune Nxt) and a total of 10.000 cells were acquired per sample.
as §1

human PD-L1-Fc protein [4] = target: T3, human PD-L1-Fc protein (human, UniProt Q9NZQ7 19-239); experiment: ELISA, purified Fab on coated human PD-L1-Fc, pH 6 (FIG. 4)
T3 construct: Bought from R&D Systems; also called immobilised PD-L1-Fc; not shown: Fc part of the bought fusion protein, not described
T3 sequence (Q9NZQ7 19-239 limits assumed): as above

human PD-L1-Fc protein [5] = target: T3, human PD-L1-Fc protein; experiment: ELISA, Fab on coated human PD-L1-Fc; ratio from extrapolating an OD of 0.3 at pH 6 versus pH 7.4
human PD-L1-Fc protein [6] = target: T3, human PD-L1-Fc protein; experiment: ELISA, Fab on coated human PD-L1-Fc, pH 7.4
human PD-L1-Fc protein [7] = target: T3, human PD-L1-Fc protein; experiment: BIAcore off rate, unpurified periplasmic extract Fab on PD-L1, pH 7.4
human PD-L1 on cells [8] = target: T1, human PD-L1 on cells; experiment: flow cytometry on MDA-MB-231 cells, Krebs buffer, pH 6.5
Protocol: as §1

biotinylated human PD-L1 [9] = target: T2, biotinylated human PD-L1; experiment: competition ELISA, Fab with biotinylated PD-L1 on coated PD-1-Fc
biotinylated human PD-L1 [10] = target: T2, biotinylated human PD-L1; experiment: competition ELISA, Fab with biotinylated PD-L1 on coated PD-1-Fc; ratio of IC50 values
biotinylated human PD-L1 [11] = target: T2, biotinylated human PD-L1; experiment: competition ELISA, Fab with biotinylated PD-L1 on coated PD-1-Fc, pH 6; remark: listed apart in the source
human PD-L1-Fc protein [12] = target: T3, human PD-L1-Fc protein; experiment: BIAcore off rate, unpurified periplasmic extract Fab on PD-L1, pH 6
biotinylated human PD-L1 [13] = target: T2, biotinylated human PD-L1; experiment: competition ELISA, Fab with biotinylated PD-L1 on coated PD-1-Fc, pH 6.5
human PD-L1-Fc protein [14] = target: T3, human PD-L1-Fc protein; experiment: ELISA, Fab on coated human PD-L1-Fc, pH 6
human PD-L1 on cells [15] = target: T1, human PD-L1 on cells; experiment: flow cytometry on MDA-MB-231 cells, Krebs buffer, pH 7.4
Protocol: as §1

biotinylated human PD-L1 [16] = target: T2, biotinylated human PD-L1; experiment: competition ELISA, Fab with biotinylated PD-L1 on coated PD-1-Fc, pH 7.4
human PD-L1 on cells [17] = target: T1, human PD-L1 on cells; experiment: flow cytometry on MDA-MB-231 cells, Krebs buffer, pH 6
Protocol: as §1

human PD-L1-Fc protein [18] = target: T3, human PD-L1-Fc protein; experiment: BIAcore off rate, unpurified periplasmic extract Fab on PD-L1
human PD-L1 on cells [19] = target: T1, human PD-L1 on cells; experiment: flow cytometry on MDA-MB-231 cells, pH 6
human PD-L1 on cells [20] = target: T1, human PD-L1 on cells; experiment: flow cytometry on MDA-MB-231 cells, pH 7.4
human PD-L1 on cells [21] = target: T1, human PD-L1 on cells; experiment: flow cytometry on MDA-MB-231 cells, pH 6.5

| Ratio pH 6:7.4 (human PD-L1 on cells [1]) | IC50 (biotinylated human PD-L1 [2]) [nM] | pH binding preference (fold) (human PD-L1 on cells [3]) | concentration at saturation of binding (human PD-L1-Fc protein [4]) [nM] | Ratio pH 6:7.4 (human PD-L1-Fc protein [5]) | EC50 (human PD-L1-Fc protein [6]) [nM] | koff (human PD-L1-Fc protein [7]) [s⁻¹] | EC50 (human PD-L1 on cells [8]) [nM] | Ratio pH 6:7.4 (biotinylated human PD-L1 [10]) | koff (human PD-L1-Fc protein [12]) [s⁻¹] | IC50 (biotinylated human PD-L1 [13]) [nM] | EC50 (human PD-L1-Fc protein [14]) [nM] | EC50 (human PD-L1 on cells [15]) [nM] | IC50 (biotinylated human PD-L1 [16]) [nM] | EC50 (human PD-L1 on cells [17]) [nM] | Ratio pH 6 vs 7.4 (human PD-L1-Fc protein [18]) | EC50 (human PD-L1 on cells [19]) [nM] | EC50 (human PD-L1 on cells [20]) [nM] | EC50 (human PD-L1 on cells [21]) [nM] | Binder | other results |
| --- | --- | --- | --- | --- | --- | --- | --- | --- | --- | --- | --- | --- | --- | --- | --- | --- | --- | --- | --- | --- |
| > 50 | 15.7 | > 100 | 4 | 38 | > 100 | 0.0105 | 6.4 | > 6.37 | 0.00135 | 52.7 | 0.31 | > 100 | > 100 | 2 | 13 |  |  |  | Fab 8B06 (Fab, V domains shown, Purified Fab prepared from IgG with the Pierce kit; also called 8B06 Fab) VH: QVQLVQSGGGVVQPGRSLRLSCAASGFTFSSYGMYWVRQAPGKGLEWVAVISYDGSNKYYADSVKGRFTISRDNSKNTLNLQMNSLRAEDTAVYYCAKGALTHWGVVIGDGMDVWGQGTTVTVSS VL: NFMLTQPHSVSESPGKTVTISCRETELSRRLHYVRWYQQRPGSSPTTVIYEDDQRPSGVPDRFSGSIDSSSNSASLTISGLKTEDEADYYCQSFDSTNPWVFGGGTKLTVL | fold less inhibitory activity at pH 6.5 than at pH 6 (biotinylated human PD-L1 [9]): ~3 fold; fold less (IC50) than the control Fab 2.7A04OPT at pH 6 (biotinylated human PD-L1 [11]): ~3 fold |
|  |  |  |  |  |  |  |  |  |  |  |  |  |  |  |  | 0.14 | 0.12 | 0.17 | 8B06 mAb (antibody, V domains shown, Formatted into an IgG1; also called 8B06 IgG1) VH: QVQLVQSGGGVVQPGRSLRLSCAASGFTFSSYGMYWVRQAPGKGLEWVAVISYDGSNKYYADSVKGRFTISRDNSKNTLNLQMNSLRAEDTAVYYCAKGALTHWGVVIGDGMDVWGQGTTVTVSS VL: NFMLTQPHSVSESPGKTVTISCRETELSRRLHYVRWYQQRPGSSPTTVIYEDDQRPSGVPDRFSGSIDSSSNSASLTISGLKTEDEADYYCQSFDSTNPWVFGGGTKLTVL |  |
| > 7.41 | 42.3 | > 100 | 4 | 9 | > 100 | 0.0275 | 56.4 | > 2.36 | 0.00283 | > 100 | 2.63 | > 100 | > 100 | 13.5 | 10 |  |  |  | Fab 8D04 (Fab, V domains shown, Purified Fab prepared from IgG with the Pierce kit; also called 8D04 Fab) VH: QVQLVQSGGGVVQPGRSLRLSCAASGFTFSSYGMYWVRQAPGKGLEWVAVISYDGSNKYYADSVKGRFTISRDNSKNTLNLQMNSLRAEDTAVYYCAKGALTHWGVVIGDGMDVWGQGTTVTVSS VL: NFMLTQPHSVSESPGKTVTISCRGTGSSFHHKYVRWYQQRPGSSPTTVIYEDDQRPSGVPDRFSGSIDSSSNSASLTISGLKTEDEADYYCQSFDSTNPWVFGGGTKLTVL | fold less potent than Fabs 8D06, 8A04, 8G08 and 8B06 (biotinylated human PD-L1 [9]): ~3 fold |
|  |  |  |  |  |  |  |  |  |  |  |  |  |  |  |  | 0.11 | 0.1 | 0.13 | 8D04 mAb (antibody, V domains shown, Formatted into an IgG1; also called 8D04 IgG1) VH: QVQLVQSGGGVVQPGRSLRLSCAASGFTFSSYGMYWVRQAPGKGLEWVAVISYDGSNKYYADSVKGRFTISRDNSKNTLNLQMNSLRAEDTAVYYCAKGALTHWGVVIGDGMDVWGQGTTVTVSS VL: NFMLTQPHSVSESPGKTVTISCRGTGSSFHHKYVRWYQQRPGSSPTTVIYEDDQRPSGVPDRFSGSIDSSSNSASLTISGLKTEDEADYYCQSFDSTNPWVFGGGTKLTVL |  |
